In US20250011363A1, “OPTIMIZED SHORTENED PEPTIDE THAT BINDS TO ACETYLCHOLINE RECEPTOR, AND USE THEREOF” (SKINMED CO., LTD., priority 2021, published 2025):

target: acetylcholine receptor; assay: SPR, AchR immobilized on CM5 chip, peptide at 10 uM

Binder | Binding affinity (RU)
RDMMR [5mer-1007] | 30
KHCWR [5mer-1000] | 20
KMCAK [5mer-1009] | 29
RFMGK [5mer-704] | 28
RKNKR [5mer-1014] | 23
RADFK [5mer-712] | 18
KYPKK [5mer-713] | 16
KEPER [5mer-1006] | 17
RHAKK [5mer-705] | 15
KCNGR [5mer-715] | 22
KDSNR [5mer-1008] | 11
KCCVK [5mer-1013] | 19
KIEAK [5mer-707] | 32
RHTIR [5mer-709] | 27
KEKAR [5mer-710] | 21
KKNER [5mer-699] | 12
KCDNK [5mer-1010] | 16

Binder | Binding affinity (RU)
KPCGK [5mer-1001] | 33
RPCAK [5mer-714] | 32
RAWER [5mer-700] | 17
KTKFK [5mer-999] | 19
RMTVR [5mer-1003] | 11
RHKVR [5mer-1012] | 22
RTHGR [5mer-1005] | 30
RDADR [5mer-1004] | 30
KPKAR [5mer-708] | 20
KTDMK [5mer-1011] | 25
KECIK [5mer-711] | 32
KISHK [5mer-702] | 30
RNHNK [5mer-701] | 22
KEDNK [5mer-1002] | 12
RCWMK [5mer-1015] | 30
KPNWR [5mer-703] | 22
RKMAK [5mer-706] | 27

Further lines, results first:

Binding affinity (RU) | Binder
149 | RQILKR [6mer-2-392]
141 | KGVRRR [6mer-2-360]
142 | KSLLRR [6mer-2-370]
145 | KWLRRR [6mer-2-390]
141 | RLVYRK [6mer-2-380]
131 | RVVQKK [6mer-2-375]
122 | KWLQRR [6mer-2-396]
141 | KLVQRR [6mer-2-372]
142 | RSFQKK [6mer-2-384]
154 | RQIRRR [6mer-2-400]
131 | KRFQRK [6mer-2-378]
148 | RWLTRR [6mer-2-399]
154 | KVFTKK [6mer-2-364]
136 | KWQSKR [6mer-2-386]
153 | RSFQRR [6mer-2-361]
127 | RGVQKR [6mer-2-379]
141 | KQQCKR [6mer-2-376]
153 | RSILRK [6mer-2-401]
151 | RGQRKK [6mer-2-357]
148 | KRLSRR [6mer-2-371]
136 | RLFCKK [6mer-2-359]
153 | KSLYKK [6mer-2-389]
125 | KRQLKK [6mer-2-374]

Binding affinity (RU) | Binder
141 | RQQRRR [6mer-2-398]
141 | KLVLKR [6mer-2-394]
142 | RLRTRR [6mer-2-368]
148 | KWRYRR [6mer-2-395]
139 | KLIYRK [6mer-2-373]
148 | KSVSRR [6mer-2-382]
146 | KWLCKK [6mer-2-387]
154 | RSIYRK [6mer-2-397]
141 | KQYQKR [6mer-2-391]
145 | RGLQRK [6mer-2-393]
139 | KVYRRR [6mer-2-381]
154 | RGVCKR [6mer-2-385]
142 | RWRSRR [6mer-2-367]
139 | KRFQKK [6mer-2-388]
145 | KVVRRR [6mer-2-369]
142 | KQYYRR [6mer-2-366]
154 | RQIYKK [6mer-2-358]
121 | RWRYRR [6mer-2-365]
147 | KSIYRK [6mer-2-363]
128 | KLVRRK [6mer-2-383]
154 | RGRQKR [6mer-2-362]
142 | RRYCRR [6mer-2-377]
